T1: Alpha-2-Macroglobulin
T1 chain: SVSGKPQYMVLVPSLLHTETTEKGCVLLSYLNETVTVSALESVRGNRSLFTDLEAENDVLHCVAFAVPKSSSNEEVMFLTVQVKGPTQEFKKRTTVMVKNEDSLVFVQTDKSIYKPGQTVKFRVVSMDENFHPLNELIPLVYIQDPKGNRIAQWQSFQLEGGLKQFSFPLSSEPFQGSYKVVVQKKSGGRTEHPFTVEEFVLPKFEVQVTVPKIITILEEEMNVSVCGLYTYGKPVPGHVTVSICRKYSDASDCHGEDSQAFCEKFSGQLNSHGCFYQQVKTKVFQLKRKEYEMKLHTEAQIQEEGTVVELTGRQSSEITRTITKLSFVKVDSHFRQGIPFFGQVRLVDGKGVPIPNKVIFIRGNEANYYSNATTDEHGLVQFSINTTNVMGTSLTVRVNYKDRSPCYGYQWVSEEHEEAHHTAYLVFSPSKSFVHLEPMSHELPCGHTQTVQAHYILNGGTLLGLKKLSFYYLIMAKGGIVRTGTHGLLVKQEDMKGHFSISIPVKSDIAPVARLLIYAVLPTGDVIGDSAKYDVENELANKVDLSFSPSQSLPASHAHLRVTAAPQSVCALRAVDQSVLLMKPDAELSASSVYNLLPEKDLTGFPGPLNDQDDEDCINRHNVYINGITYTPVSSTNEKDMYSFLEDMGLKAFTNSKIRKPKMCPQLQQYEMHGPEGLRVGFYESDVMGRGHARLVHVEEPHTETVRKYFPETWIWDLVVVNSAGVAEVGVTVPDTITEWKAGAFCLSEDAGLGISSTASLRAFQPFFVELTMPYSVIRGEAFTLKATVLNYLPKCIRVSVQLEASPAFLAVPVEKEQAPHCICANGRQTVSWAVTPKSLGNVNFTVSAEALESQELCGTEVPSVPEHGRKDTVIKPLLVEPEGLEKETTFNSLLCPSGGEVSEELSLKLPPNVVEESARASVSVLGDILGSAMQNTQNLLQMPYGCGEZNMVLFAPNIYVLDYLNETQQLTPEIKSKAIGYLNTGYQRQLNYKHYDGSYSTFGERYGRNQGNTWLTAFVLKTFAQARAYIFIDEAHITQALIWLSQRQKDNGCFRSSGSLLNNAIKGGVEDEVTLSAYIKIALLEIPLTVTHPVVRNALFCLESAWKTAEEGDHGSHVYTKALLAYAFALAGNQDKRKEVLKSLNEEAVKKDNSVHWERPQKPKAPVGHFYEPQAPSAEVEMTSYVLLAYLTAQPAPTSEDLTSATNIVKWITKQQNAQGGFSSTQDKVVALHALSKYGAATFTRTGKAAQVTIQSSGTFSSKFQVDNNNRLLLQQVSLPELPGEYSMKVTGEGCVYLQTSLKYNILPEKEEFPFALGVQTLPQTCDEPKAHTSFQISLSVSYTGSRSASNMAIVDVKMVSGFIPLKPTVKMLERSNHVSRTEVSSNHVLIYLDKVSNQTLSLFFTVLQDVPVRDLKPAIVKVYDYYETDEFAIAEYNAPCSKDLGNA

B1: ADAMTS-5 (protein)
chain: SISRARQVELLLVADASMARLYGRGLQHYLLTLASIANRLYSHASIENHIRLAVVKVVVLGDKDKSLEVSKNAATTLKNFCKWQHQHNQLGDDHEEHYDAAILFTREDLCGHHSCDTLGMADVGTICSPERSCAVIEDDGLHAAFTVAHEIGHLLGLSHDDSKFCEETFGSTEDKRLMSSILTSIDASKPWSKCTSATITEFLDDGHGNCLLDLPRKQILGPEELPGQTYDATQQCNLTFGPEYSVCPGMDVCARLWCAVVRQGQMVCLTKKLPAVEGTPCGKGRICLQGKCVDKTKKKYYSTSSHGNWGSWGSWGQCSRSCGGGVQFAYRHCNNPAPRNNGRYCTGKRAIYRSCSLMPCPPNGKSFRHEQCEAKNGYQSDAKGVKTFVEWVPKYAGVLPADVCKLTCRAKGTGYYVVFSPKVTDGTECRLYSNSVCVRGKCVRTGCDGIIGSKLQYDKCGVCGGDNSSCTKIVGTFNKKSKGYTDVVRIPEGATHIKVRQFKAKDQTRFTAYLALKKKNGEYLINGKYMISTSETIIDINGTVMNYSGWSHRDDFLHGMGYSATKEILIVQILATDPTKPLDVRYSFFVPKKSTPKVNSVTSHGSNKVGSHTSQPQWVTGPWLACSRTCDTGWHTRTVQCQDGNRKLAKGCPLSQRPSAFKQCLLKKC
B2: ADAMTS-4 (protein)
chain: FASLSRFVETLVVADDKMAAFHGAGLKRYLLTVMAAAAKAFKHPSIRNPVSLVVTRLVILGSGEEGPQVGPSAAQTLRSFCAWQRGLNTPEDSDPDHFDTAILFTRQDLCGVSTCDTLGMADVGTVCDPARSCAIVEDDGLQSAFTAAHELGHVFNMLHDNSKPCISLNGPLSTSRHVMAPVMAHVDPEEPWSPCSARFITDFLDNGYGHCLLDKPEAPLHLPVTFPGKDYDADRQCQLTFGPDSRHCPQLPPPCAALWCSGHLNGHAMCQTKHSPWADGTPCGPAQACMGGRCLHMDQLQDFNIPQAGGWGPWGPWGDCSRTCGGGVQFSSRDCTRPVPRNGGKYCEGRRTRFRSCNTEDCPTGSALTFREEQCAAYNHRTDLFKSFPGPMDWVPRYTGVAPQDQCKLTCQAQALGYYYVLEPRVVDGTPCSPDSSSVCVQGRCIHAGCDRIIGSKKKFDKCMVCGGDGSGCSKQSGSFRKFRYGYNNVVTIPAGATHILVRQQGNPGHRSIYLALKLPDGSYALNGEYTLMPSPTDVVLPGAVSLRYSGATAASETLSGHGPLAQPLTLQVLVAGNPQDTRLRYSFFVPRPTPSTPRPTPQDWLHRRAQILEILRRRPWAGRK

Target: T1, Alpha-2-Macroglobulin

Protein | generation of α2M neoepitopes on digestion (50 ng α2M, 100 ng enzyme, 37° C., 1-30 min)
B1 | Both neoepitopes were generated as early as after 2 minutes of incubation, and increased over time, up to after 30 minutes of incubation
B2 | Both neoepitopes were generated as early as after 2 minutes of incubation, and increased over time, up to after 30 minutes of incubation
